Results taken from US20150125431A1 (ZEALAND PHARMA A S, published 2015).
Non-standard residues stand in square brackets, D forms with d. Aib = CC(C)(N)C(=O)O

T1: human GLP-2 receptor (hGLP2-R), splice variant rs17681684 (human, UniProt O95838 1-553)
T1 sequence (looked up): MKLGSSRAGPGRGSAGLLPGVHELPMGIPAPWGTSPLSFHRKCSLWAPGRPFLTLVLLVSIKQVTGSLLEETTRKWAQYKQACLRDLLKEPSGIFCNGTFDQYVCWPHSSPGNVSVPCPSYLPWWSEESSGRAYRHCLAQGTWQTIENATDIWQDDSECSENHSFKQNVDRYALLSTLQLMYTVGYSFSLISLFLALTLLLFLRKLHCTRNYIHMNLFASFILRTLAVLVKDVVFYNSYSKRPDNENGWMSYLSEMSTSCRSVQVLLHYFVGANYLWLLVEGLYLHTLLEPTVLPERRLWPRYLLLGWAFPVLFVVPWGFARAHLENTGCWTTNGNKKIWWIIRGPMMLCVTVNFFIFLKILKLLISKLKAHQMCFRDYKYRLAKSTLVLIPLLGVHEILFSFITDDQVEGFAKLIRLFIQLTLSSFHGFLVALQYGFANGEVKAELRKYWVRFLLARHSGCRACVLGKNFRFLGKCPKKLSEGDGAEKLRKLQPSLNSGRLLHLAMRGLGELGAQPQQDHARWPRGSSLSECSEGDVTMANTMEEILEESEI


Columns and labels:
Test in all cases: cell-based or functional assay
[1] = target: human GLP-2 receptor (hGLP2-R), splice variant rs17681684 (human) (UniProt O95838)
[2] = target: human glucagon-like peptide 1 receptor (GLP-1R) (human, UniProt P43220 24-463)
[3] = target: T1, human GLP-2 receptor (hGLP2-R), splice …

Molecule	GLP-2R EC50 (nM), cAMP AlphaScreen on HEK293 cells expressing the receptor [1] [nM]	GLP-1R EC50 (nM), cAMP AlphaScreen on HEK293 cells expressing the receptor [2] [nM]	GLP-2R EC50 (nM), cAMP AlphaScreen on HEK293 cells expressing the receptor [3] [nM]
GLP-1 (from UniProt P01275 98-127) (peptide)	> 1000	–	–
H-HGEGTFTSDLSKQMESKAARDFIEWLIQTKITD-OH [Compound 6: Hy-HGEGTFTSDLSKQMESKAARDFIEWLIQTKITD-OH]	–	1.1	–
H-HGDGSFSSELATILDGKAARDFINWLIQTKITD-OH [Compound 7: Hy-HGDGSFSSELATILDGKAARDFINWLIQTKITD-OH]	–	0.78	0.2
H-H[Aib]DGSFSDEMNTILDNQAARDFINWLIQTKITD-OH (SMILES CC[C@H](C)[C@H](NC(=O)[C@H](Cc1ccccc1)NC(=O)[C@H](CC(=O)O)NC(=O)[C@H](CCCNC(=N)N)NC(=O)[C@H](C)NC(=O)[C@H](C)NC(=O)[C@H](CCC(N)=O)NC(=O)[C@H](CC(N)=O)NC(=O)[C@H](CC(=O)O)NC(=O)[C@H](CC(C)C)NC(=O)[C@@H](NC(=O)[C@@H](NC(=O)[C@H](CC(N)=O)NC(=O)[C@H](CCSC)NC(=O)[C@H](CCC(=O)O)NC(=O)[C@H](CC(=O)O)NC(=O)[C@H](CO)NC(=O)[C@H](Cc1ccccc1)NC(=O)[C@H](CO)NC(=O)CNC(=O)[C@H](CC(=O)O)NC(=O)C(C)(C)NC(=O)[C@@H](N)Cc1c[nH]cn1)[C@@H](C)O)[C@@H](C)CC)C(=O)N[C@@H](CC(N)=O)C(=O)N[C@@H](Cc1c[nH]c2ccccc12)C(=O)N[C@@H](CC(C)C)C(=O)N[C@H](C(=O)N[C@@H](CCC(N)=O)C(=O)N[C@H](C(=O)N[C@@H](CCCCN)C(=O)N[C@H](C(=O)N[C@H](C(=O)N[C@@H](CC(=O)O)C(=O)O)[C@@H](C)O)[C@@H](C)CC)[C@@H](C)O)[C@@H](C)CC) [Compound 1: Hy-H-Aib-DGSFSDEMNTILDNQAARDFINWLIQTKITD-OH]	–	44	0.12
H-HGDGSFSSEMNTILDSQAARDFINWLIQTKITD-OH [Compound 4: Hy-HGDGSFSSEMNTILDSQAARDFINWLIQTKITD-OH]	–	25	0.06
H-HGEGTFTSDLSTILENKAARDFIEWLIQTKITD-OH [Compound 8: Hy-HGEGTFTSDLSTILENKAARDFIEWLIQTKITD-OH]	–	16	0.008
H-HGDGSFSDEMNTILDNKAARDFINWLIQTKITD-OH [Compound 2: Hy-HGDGSFSDEMNTILDNKAARDFINWLIQTKITD-OH]	–	77	0.02
H-HGEGSFSSDLSTILENKAARDFIEWLIQTKITD-OH [Compound 9: Hy-HGEGSFSSDLSTILENKAARDFIEWLIQTKITD-OH]	–	9.1	0.2
H-HGDGSFSSELATILDGQAARDFIAWLIQTKITD-OH [Compound 11: Hy-HGDGSFSSELATILDGQAARDFIAWLIQTKITD-OH]	–	0.34	0.2
H-HGEGSFSSDLSTILEGKAARDFIEWLIQTKITD-OH [Compound 13: Hy-HGEGSFSSDLSTILEGKAARDFIEWLIQTKITD-OH]	–	18	0.1
H-H[Aib]DGSFSDELNTILDGKAARDFINWLIQTK-NH2 (SMILES CC[C@H](C)[C@H](NC(=O)[C@H](Cc1ccccc1)NC(=O)[C@H](CC(=O)O)NC(=O)[C@H](CCCNC(=N)N)NC(=O)[C@H](C)NC(=O)[C@H](C)NC(=O)[C@H](CCCCN)NC(=O)CNC(=O)[C@H](CC(=O)O)NC(=O)[C@H](CC(C)C)NC(=O)[C@@H](NC(=O)[C@@H](NC(=O)[C@H](CC(N)=O)NC(=O)[C@H](CC(C)C)NC(=O)[C@H](CCC(=O)O)NC(=O)[C@H](CC(=O)O)NC(=O)[C@H](CO)NC(=O)[C@H](Cc1ccccc1)NC(=O)[C@H](CO)NC(=O)CNC(=O)[C@H](CC(=O)O)NC(=O)C(C)(C)NC(=O)[C@@H](N)Cc1c[nH]cn1)[C@@H](C)O)[C@@H](C)CC)C(=O)N[C@@H](CC(N)=O)C(=O)N[C@@H](Cc1c[nH]c2ccccc12)C(=O)N[C@@H](CC(C)C)C(=O)N[C@H](C(=O)N[C@@H](CCC(N)=O)C(=O)N[C@H](C(=O)N[C@@H](CCCCN)C(N)=O)[C@@H](C)O)[C@@H](C)CC) [Compound 10: Hy-H-Aib-DGSFSDELNTILDGKAARDFINWLIQTK-NH2]	–	0.03	3.9
H-HGEGTFTSDLSKQMEGQAVRDFIEWLIQTKITD-OH [Compound 5: Hy-HGEGTFTSDLSKQMEGQAVRDFIEWLIQTKITD-OH]	–	1	0.2
